Assay results from the supplement of paper PMC9170038.

Test system: MS2 coat protein
Assay: apparent KD of MS2 coat protein; designed switch direction (-1 OFF switch, 1 ON switch): -1; higher = weaker reporter binding
How it was run: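 The buffer was Tris-HCl pH 7.5 with KCl, MgCl2, BSA, DTT, tRNA and Tween-20. In it, SNAP-549-labelled MS2 coat protein was titrated in doubling steps from 0.7 or 1.5 nM to 3 µM over chip-bound RNA switches transcribed by stalled E. coli RNA polymerase on Illumina chips. Apparent KD is the per-design median over clusters of curve fits to normalised fluorescence.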

[1] = Eterna round: R95, input ligand: FMN 200 uM
[2] = Eterna round: R95, input ligand: microRNA oligo, concentration not stated
[3] = Eterna round: R95, input ligand: none
[4] = input ligand: microRNA oligo, concentration not stated

Sequence | apparent KD of MS2 coat protein [1] | apparent KD of MS2 coat protein [2] | apparent KD of MS2 coat protein [3] | apparent KD of MS2 coat protein (input ligand: FMN 200 uM) | apparent KD of MS2 coat protein (input ligand: none) | apparent KD of MS2 coat protein [4]
GGUACUAACACGAGAGUGUUAGUACUAUAAGCUUGUGUUACAUGAGGAUCACCCAUGUCCUCAUAAGCUCGUCUUAU [Mat - Sensor v3 - Turn-off var 2 - D76] (puzzle: Sensor v3, turn-off variant 2) | 137 nM | 89.6 nM | 156 nM | – | – | –
UGGCCACAUGAGGAUCACCCAUGUCAGGAUAUCGGAUAUAUUGUGGUUUUAAGACCAACGAGAAGGGACGGGUC [Eternabot (L1) Solution 9] (Eterna round: R97, puzzle: Exclusion 1) | – | – | – | 119 nM | 139 nM | –
AGUAACCGUCACGAAAGUGAUGGUUACGCAAGUAAAUGUACAUGAGGAUCACCCAUGUCCUCAUUUGCUCGUCUUAU [Sensor 3 - 44] (puzzle: Sensor v3, turn-off variant 2) | 188 nM | 330 nM | – | – | – | –
CUUGCACGACGAGGAUAUCGUAAACAUGAGGAUCACCCAUGUAGGUGGCGUCGUCCUCUAUCUUGCGAGAAGGCGUAAAAUUAA [Begeeda] (Eterna round: R96, puzzle: Exclusion NG 2) | – | – | – | 82.6 nM | 39.4 nM | 47.1 nM
GGUAGAGUGGUAGGAUAUCCGACUGAAACAGACGGAGAAGGACCACAGUCACUGGGUCCAAAUAUAAUAAACAAUAAAUCUACC [pwkr exNG1 F6.1] (Eterna round: R96, puzzle: Exclusion NG 1) | – | – | – | 307 nM | 331 nM | 212 nM
GGAUAAAACUGAGGAUAUACGUAUCGCUAGCGAGUAGAAGGCAGACAUGAGGAUCACCCAUGUGAGUUCUCGAUAAGAAACACG [Prohibition 60 - Jieux - Exclusion NG 1] (Eterna round: R96, puzzle: Exclusion NG 1) | – | – | – | 163 nM | 53.3 nM | 35.5 nM
GGUGAAGCAGGAUAUGUACCAAUAUACAUGAGGAUCACCCAUGUCAUGUAGGAACUGCGUAUAGAAGGGCUUCACC [Exclusion 5 (FMN-MS2 slide v.7)] (Eterna round: R97, puzzle: Exclusion 5) | – | – | – | 123 nM | 55 nM | –
GGAGCUGGAGGAUAUACAAGAUCGAAAGAUCAAAGAUCCGUACAUGAGGAUCACCCAUGUAGAAGGCCAGCUCC (Eterna round: R97, puzzle: Exclusion 2) | – | – | – | 763 nM | 40.4 nM | –
AGUCCAGAUGUUAGGAUAUGCAACUAGCCAUUGUAGCAGAAGGAACAUGAGGAUCACCCAUGUACAAAGACCCG [Edgeraer] (puzzle: Brourd's mod of Exclusion 4) | 47.4 nM | 13.4 nM | 11.3 nM | – | – | –
UCCUUACAUGAGGAUCACCCAUGUCAGGAUAUCUCCUCACUGCGCUUGCGCAGUGAAUAGAGAAGGGACGGGCU [JL ViennaUCT Aner mod 8] (puzzle: Exclusion 1) | 36.6 nM | 32.4 nM | 40.1 nM | – | – | –
GACUUCUCUGAGGAUAUUGCAUCAUACGAUCUAUAAGAAGGCAGAACAUGAGGAUCACCCAUGUGGGUUUCUAG [Bingo-Bango-28] (Eterna round: R97, puzzle: Exclusion 6) | – | – | – | 70.2 nM | 38.3 nM | –
CAUUAUUAUCGAGGAUAUCCUAUUGUAAUUCUGGGAGAAGGCGGACUCAACAUGAGGAUCACCCAUGUAAGACGGGUACUAGAU [Ex NG1 #21] (Eterna round: R96, puzzle: Exclusion NG 1) | – | – | – | 69.5 nM | 92 nM | 61 nM
UUGUUCCAUGUAGGAUAUGCAUAUUCUCAUUAUGCAGAAGGACAUGAGGAUCACCCAUGUAUGUUAUUAUUAUAUGUUACAUGU [Design 2] (Eterna round: R96, puzzle: Exclusion NG 1) | – | – | – | 613 nM | 78.5 nM | 54.6 nM
UGGGAACGAGGAUAUCGAUGGUGGAACAUGAGGAUCACCCAUGUAUGAGAUAGUGUAGGGCGAGAAGGCGUUAAGU [JR_E5_Sub052] (puzzle: Exclusion 5) | – | 76.7 nM | – | – | – | –
ACAUGAGGAUCACCCAUGUGACAAUAAUGGCUGAUACAGAGACAGGAUAUUCGUGAAUAUCUAACGAAGAAGGGUCAUGACUGG [Deportation 69 - Jieux - Exclusion NG 3] (Eterna round: R96, puzzle: Exclusion NG 3) | – | – | – | 37.9 nM | 51.8 nM | 45.7 nM
CAGUACUGAGGAUAUACAUGAGGAUCACCCAUGUGUUCCAGCUAGGAAACUAGCAAUAGUAGAAGGCAGUACUG [salish99_ex3_r3_090x] (Eterna round: R96, puzzle: Exclusion 3) | – | – | – | 417 nM | 23.2 nM | 19.1 nM
UAGAAUCGAGGAUAUACAUGAGGAUCACCCAUGUGUGGCCACACGGUGUGGUCGUCAGGUAGAAGGCGAUUACA [Exclusion 3 - Mod of Jieux's Gilly Gone Silly 23 v.3] (puzzle: Exclusion 3) | 19.9 nM | 22.8 nM | 53.2 nM | – | – | –
GCAGCAAACUCUAUUAAAACCACAUGAGGAUCACCCAUGUCUCAGGAUAUGGUCUGGAUUACAGGCCAGAAGGGAGAAAGCUGC [Eli exng3 - 054] (Eterna round: R96, puzzle: Exclusion NG 3) | – | – | – | 15 nM | 15.1 nM | 10.9 nM
CGAUAAAAGACAGGAUAUGAGGAGAGAGAGAGAUCAGAAGGGUCACAUGAGGAUCACCCAUGUGAGUUCUCGAAAUUAAAUAUU [Prohibition 50 - Jieux - Exclusion NG 1] (Eterna round: R96, puzzle: Exclusion NG 1) | – | – | – | 18.8 nM | 18.8 nM | 14.2 nM
ACAAGCUUUUUGUUCGUCUUAUAAUAUUCAAUAAAGAUAACAUGAGGAUCACCCAUGUAACAAAGACGGACUCAUGU [Sesor Array 16 - Jieux - Sensor v3, turn-off variant 2] (puzzle: Sensor v3, turn-off variant 2) | 16.5 nM | 267 nM | 12.4 nM | – | – | –
CUAUCUUGCAAGGAUAUGCAAUUUAUUAUUUAUGCAGAAGGUGCUACAUGAGGAUCACCCAUGUUUCUGGGUUU [JR_E6_Sub046] (Eterna round: R96, puzzle: Exclusion 6) | – | – | – | 314 nM | 120 nM | 116 nM
UGAUGACAUGAGGAUCACCCAUGUCAGGAUAUGCUUCGGCUUCGGAAAUGAAGUUGAAGUAGAAGGGACUGUCG [-27.1, -24.1 kcal, A 28% sequence 3 bis] (Eterna round: R97, puzzle: Exclusion 1) | – | – | – | 37.7 nM | 27.8 nM | –
CCGCUGCAAGGAUAUACUUGCGGUGGUGUUCGAGUUCUUUUACUUGAGGAUCACCCAAGUAGAAGGUGCAAAAC [jl-ex2.4.54 ViennaUCT mod] (Eterna round: R97, puzzle: Exclusion 2) | – | – | – | 17.3 nM | 16.2 nM | –
